Assay results from the supplement of paper PMC10065799, “High-throughput profiling of sequence recognition by tyrosine kinases and SH2 domains using bacterial peptide display” (eLife, 2023).

How the values were obtained:
[1] = molecular target: SHP2-C SH2; assay: SH2 binding enrichment of the phosphorylated peptide, bacterial display (enrichment ratio); higher = better substrate or ligand; peptides without Tyr show the background
[2] = molecular target: Grb2 SH2 (UniProt P62993); assay: as above
[3] = molecular target: c-Src SH2; assay: as above
[4] = system: c-Src; assay: phosphorylation enrichment, bacterial display (enrichment ratio); higher = better substrate or ligand; peptides without Tyr show the background
[5] = molecular target: MERTK (UniProt Q12866); assay: as above
[6] = molecular target: EPHB2 (UniProt P29323); assay: as above
[7] = molecular target: FGFR3 (UniProt P22607); assay: as above
[8] = system: Fer (mouse); assay: as above
[9] = molecular target: Fes (UniProt P07332); assay: as above
[10] = system: AncSZ; assay: as above
[11] = system: c-Abl (mouse); assay: as above
[12] = molecular target: EPHB1 (UniProt P54762); assay: as above
[13] = molecular target: Fyn (UniProt P06241); assay: as above
[14] = molecular target: Hck (UniProt P08631); assay: as above
[15] = molecular target: Jak2 (UniProt O60674); assay: as above
[16] = molecular target: FGFR1 (UniProt P11362); assay: as above
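Wherever SH2 binding enrichment of the phosphorylated peptide, bacterial display is given: peptide library displayed on the E. coli surface as eCPX fusions, selected cells deep-sequenced, score is each peptide's frequency after selection divided by its frequency in the input.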
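Wherever phosphorylation enrichment, bacterial display is given: 11-residue human phosphosite peptides and single-mutation variants displayed on the E. coli surface, counted by deep sequencing, each peptide's frequency after selection divided by its frequency in the unselected input library; frequency after pTyr selection over input frequency; kinase dosed for 20-30% of maximal phosphorylation in three min.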

Chain of FGFR1 (P11362 whole entry, looked up, the tested form may be a part): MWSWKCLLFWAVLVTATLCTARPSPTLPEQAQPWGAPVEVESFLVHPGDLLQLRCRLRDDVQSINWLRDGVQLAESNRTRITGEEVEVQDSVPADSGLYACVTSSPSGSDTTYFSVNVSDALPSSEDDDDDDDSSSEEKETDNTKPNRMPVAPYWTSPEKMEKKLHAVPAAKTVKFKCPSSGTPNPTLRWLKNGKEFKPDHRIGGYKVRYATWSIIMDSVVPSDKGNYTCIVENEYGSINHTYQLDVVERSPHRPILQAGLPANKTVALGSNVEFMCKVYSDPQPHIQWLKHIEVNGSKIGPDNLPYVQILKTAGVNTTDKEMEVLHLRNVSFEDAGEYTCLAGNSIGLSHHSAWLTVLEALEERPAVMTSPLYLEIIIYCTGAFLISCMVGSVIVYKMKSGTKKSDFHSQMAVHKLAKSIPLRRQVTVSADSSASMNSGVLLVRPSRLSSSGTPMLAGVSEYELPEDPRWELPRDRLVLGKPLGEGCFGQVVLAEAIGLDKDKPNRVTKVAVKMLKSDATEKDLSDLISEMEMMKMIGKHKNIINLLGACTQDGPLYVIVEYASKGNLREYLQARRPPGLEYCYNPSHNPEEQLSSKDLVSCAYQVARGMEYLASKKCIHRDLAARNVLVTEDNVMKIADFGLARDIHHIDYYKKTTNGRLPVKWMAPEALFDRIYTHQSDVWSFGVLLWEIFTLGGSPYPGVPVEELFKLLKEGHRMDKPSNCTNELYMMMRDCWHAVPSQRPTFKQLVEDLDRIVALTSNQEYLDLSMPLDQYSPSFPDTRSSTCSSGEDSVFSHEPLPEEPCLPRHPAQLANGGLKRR
Chain of EPHB2 (P29323 whole entry, looked up): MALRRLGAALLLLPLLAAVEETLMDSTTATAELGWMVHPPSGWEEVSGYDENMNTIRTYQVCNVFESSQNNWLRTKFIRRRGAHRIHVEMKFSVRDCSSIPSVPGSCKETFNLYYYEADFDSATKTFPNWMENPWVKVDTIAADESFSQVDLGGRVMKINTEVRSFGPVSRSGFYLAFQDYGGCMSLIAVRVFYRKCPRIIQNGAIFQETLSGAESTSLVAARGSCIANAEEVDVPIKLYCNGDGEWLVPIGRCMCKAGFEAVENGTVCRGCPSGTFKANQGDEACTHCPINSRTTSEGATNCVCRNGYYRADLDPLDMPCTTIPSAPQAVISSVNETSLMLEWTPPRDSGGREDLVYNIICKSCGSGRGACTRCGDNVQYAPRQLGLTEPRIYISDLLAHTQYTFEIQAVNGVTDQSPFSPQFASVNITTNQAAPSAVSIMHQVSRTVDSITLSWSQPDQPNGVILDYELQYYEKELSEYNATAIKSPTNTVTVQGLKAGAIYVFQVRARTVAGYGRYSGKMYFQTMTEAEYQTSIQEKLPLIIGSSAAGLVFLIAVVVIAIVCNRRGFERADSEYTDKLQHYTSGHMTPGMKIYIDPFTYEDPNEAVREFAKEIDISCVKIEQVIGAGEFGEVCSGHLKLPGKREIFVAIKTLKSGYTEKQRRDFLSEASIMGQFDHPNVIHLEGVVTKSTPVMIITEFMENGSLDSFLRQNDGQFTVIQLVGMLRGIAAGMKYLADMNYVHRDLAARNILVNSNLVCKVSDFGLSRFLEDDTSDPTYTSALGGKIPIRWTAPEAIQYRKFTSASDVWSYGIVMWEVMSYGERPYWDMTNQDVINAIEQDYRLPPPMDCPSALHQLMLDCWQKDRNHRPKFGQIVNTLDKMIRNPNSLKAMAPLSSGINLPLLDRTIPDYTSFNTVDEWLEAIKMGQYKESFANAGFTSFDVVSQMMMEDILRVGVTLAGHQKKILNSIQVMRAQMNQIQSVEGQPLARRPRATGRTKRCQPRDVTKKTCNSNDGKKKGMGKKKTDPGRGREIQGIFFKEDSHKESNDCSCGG
Chain of Hck (P08631 whole entry, looked up): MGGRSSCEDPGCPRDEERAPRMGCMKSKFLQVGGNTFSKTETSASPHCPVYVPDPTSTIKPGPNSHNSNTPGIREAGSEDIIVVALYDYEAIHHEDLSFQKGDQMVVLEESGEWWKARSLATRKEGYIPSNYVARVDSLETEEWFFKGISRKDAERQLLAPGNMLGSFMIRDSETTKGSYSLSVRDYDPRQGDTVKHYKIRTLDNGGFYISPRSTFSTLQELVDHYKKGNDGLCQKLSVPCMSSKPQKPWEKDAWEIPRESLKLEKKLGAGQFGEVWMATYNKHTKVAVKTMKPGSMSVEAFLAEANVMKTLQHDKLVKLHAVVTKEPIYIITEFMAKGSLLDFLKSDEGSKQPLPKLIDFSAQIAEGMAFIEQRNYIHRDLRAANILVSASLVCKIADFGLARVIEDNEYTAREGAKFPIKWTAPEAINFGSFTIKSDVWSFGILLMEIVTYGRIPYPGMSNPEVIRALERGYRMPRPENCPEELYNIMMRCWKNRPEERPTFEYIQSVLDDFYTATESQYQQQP
Chain of EPHB1 (P54762 whole entry, looked up): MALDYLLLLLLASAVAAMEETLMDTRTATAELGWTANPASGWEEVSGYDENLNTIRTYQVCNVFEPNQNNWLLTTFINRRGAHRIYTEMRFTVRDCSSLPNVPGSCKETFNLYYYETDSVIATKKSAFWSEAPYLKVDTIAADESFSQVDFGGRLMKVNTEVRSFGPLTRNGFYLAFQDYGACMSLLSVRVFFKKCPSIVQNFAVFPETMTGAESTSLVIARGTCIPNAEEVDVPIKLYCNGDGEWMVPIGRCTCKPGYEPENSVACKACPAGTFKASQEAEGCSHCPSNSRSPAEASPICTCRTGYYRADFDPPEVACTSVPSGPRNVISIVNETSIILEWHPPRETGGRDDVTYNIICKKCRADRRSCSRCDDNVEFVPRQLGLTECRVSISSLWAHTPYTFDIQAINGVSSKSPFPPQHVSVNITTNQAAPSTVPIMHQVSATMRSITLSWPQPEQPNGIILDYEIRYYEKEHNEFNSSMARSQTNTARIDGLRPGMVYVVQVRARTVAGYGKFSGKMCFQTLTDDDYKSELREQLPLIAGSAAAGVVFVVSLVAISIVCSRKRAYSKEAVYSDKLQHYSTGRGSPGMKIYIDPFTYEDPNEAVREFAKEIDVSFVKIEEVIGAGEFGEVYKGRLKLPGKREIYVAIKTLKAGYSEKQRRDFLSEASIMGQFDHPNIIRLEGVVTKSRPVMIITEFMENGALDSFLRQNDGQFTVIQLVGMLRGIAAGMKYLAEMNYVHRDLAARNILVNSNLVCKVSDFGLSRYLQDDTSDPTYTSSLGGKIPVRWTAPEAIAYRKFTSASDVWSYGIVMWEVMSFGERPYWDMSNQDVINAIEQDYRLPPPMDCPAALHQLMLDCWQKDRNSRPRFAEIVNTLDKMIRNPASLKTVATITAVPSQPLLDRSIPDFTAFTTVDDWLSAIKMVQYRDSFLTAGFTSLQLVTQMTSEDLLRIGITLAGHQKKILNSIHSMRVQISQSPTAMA
Chain of Fyn (P06241 whole entry, looked up): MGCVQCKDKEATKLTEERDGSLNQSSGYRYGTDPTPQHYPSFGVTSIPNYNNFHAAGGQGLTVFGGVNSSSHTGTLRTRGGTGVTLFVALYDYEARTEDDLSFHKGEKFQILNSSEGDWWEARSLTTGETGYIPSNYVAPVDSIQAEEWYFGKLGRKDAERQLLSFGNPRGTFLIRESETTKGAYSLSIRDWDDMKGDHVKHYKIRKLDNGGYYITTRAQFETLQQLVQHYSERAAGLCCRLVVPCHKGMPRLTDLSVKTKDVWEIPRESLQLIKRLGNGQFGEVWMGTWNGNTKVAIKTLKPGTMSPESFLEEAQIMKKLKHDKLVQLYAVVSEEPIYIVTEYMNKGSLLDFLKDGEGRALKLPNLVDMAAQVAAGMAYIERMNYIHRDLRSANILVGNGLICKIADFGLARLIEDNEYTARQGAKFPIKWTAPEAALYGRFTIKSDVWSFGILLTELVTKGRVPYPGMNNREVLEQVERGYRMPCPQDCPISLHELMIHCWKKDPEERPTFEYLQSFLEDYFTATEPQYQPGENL
Chain of Grb2 SH2 (P62993 whole entry, looked up): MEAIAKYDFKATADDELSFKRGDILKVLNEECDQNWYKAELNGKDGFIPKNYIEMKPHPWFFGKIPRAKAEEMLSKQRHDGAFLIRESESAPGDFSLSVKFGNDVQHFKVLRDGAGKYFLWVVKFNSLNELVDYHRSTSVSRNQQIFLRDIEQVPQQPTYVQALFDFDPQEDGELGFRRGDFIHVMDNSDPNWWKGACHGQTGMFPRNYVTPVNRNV
Chain of FGFR3 (P22607 whole entry, looked up): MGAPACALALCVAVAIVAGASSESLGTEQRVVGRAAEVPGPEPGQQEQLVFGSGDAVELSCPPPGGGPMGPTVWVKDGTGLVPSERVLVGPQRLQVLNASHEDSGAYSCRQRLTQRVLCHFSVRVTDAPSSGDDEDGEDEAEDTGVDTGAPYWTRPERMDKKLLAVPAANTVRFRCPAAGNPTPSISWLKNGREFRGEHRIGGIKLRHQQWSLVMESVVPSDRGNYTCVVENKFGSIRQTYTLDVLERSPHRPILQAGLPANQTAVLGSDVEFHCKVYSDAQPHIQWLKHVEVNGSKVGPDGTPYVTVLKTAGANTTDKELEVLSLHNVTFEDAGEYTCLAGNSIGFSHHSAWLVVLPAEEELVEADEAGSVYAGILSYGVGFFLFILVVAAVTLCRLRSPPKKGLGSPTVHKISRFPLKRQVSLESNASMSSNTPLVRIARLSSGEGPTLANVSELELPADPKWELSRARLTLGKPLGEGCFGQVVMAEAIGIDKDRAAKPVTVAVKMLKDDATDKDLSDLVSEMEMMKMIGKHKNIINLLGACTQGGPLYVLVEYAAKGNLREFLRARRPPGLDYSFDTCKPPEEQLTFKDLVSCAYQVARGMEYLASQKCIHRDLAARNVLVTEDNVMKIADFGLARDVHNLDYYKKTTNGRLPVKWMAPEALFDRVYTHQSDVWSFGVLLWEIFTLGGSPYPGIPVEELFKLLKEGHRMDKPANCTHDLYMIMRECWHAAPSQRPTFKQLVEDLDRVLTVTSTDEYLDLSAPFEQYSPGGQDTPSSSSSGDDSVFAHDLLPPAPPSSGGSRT

Sequence | SH2 binding enrichment [1] | SH2 binding enrichment [2] | SH2 binding enrichment [3] | phosphorylation enrichment [4] | phosphorylation enrichment [5] | phosphorylation enrichment [6] | phosphorylation enrichment [7] | phosphorylation enrichment [8] | phosphorylation enrichment [9] | phosphorylation enrichment [10] | phosphorylation enrichment [11] | phosphorylation enrichment [12] | phosphorylation enrichment [13] | phosphorylation enrichment [14] | phosphorylation enrichment [15] | phosphorylation enrichment [16]
TDKLFYIYTPG [SLC27A4_Y243_S247P] | 1.12 | 0.684 | 0.383 | 0.592 | 1.46 | 0.502 | 0.853 | 0.494 | 1.34 | 1.25 | 0.673 | 0.683 | 0.422 | 0.498 | 1.68 | 0.728
AEPNIYQEKLS [USP54_Y1233_D1231N] | 0.916 | 1.12 | 0.808 | 0.679 | 0.339 | 0.462 | 0.505 | 0.34 | 0.748 | 0.763 | 0.802 | 0.401 | 0.727 | 0.778 | 0.948 | 0.442
DGKFSYLKVGH [GRM3_Y480_G475D_YF] | 0.671 | 0.838 | 0.421 | 0.411 | 0.505 | 0.388 | 0.478 | 0.338 | 1.16 | 0.678 | 0.575 | 0.444 | 0.33 | 0.337 | 0.599 | 0.467
TDKLFYIFTPG [SLC27A4_Y243_S247P_YF] | 0.604 | 0.787 | 0.401 | 0.556 | 1.72 | 0.583 | 1.11 | 0.544 | 1.49 | 1.36 | 0.873 | 0.776 | 0.392 | 0.607 | 1.65 | 0.91
SLNAVYPKAGS [OAS3_Y376_R378K] | 0.76 | 0.841 | 0.456 | 0.473 | 0.417 | 0.383 | 0.443 | 0.412 | 0.515 | 0.562 | 0.467 | 0.296 | 0.395 | 0.422 | 0.474 | 0.427
QMVDMYASSYM [AVPR2_Y124_G122D] | 0.602 | 0.742 | 1.33 | 1.29 | 0.842 | 0.571 | 0.815 | 0.631 | 1.43 | 1.22 | 0.891 | 0.558 | 0.876 | 1.58 | 0.905 | 0.579
PIAPVYAASMV [ACAT1_Y331] | 0.699 | 0.882 | 0.506 | 10.5 | 5.19 | 2.19 | 0.548 | 8.12 | 1.07 | 0.837 | 48.5 | 2.45 | 14.3 | 13.5 | 1.34 | 0.744
LKALKYKSMKI [ITGA11_Y1098] | 0.876 | 1.34 | 0.783 | 0.322 | 0.336 | 0.31 | 0.619 | 0.452 | 0.701 | 0.374 | 0.568 | 0.299 | 0.641 | 0.424 | 0.735 | 0.225
MASISYDFCRV [BST2_Y6_T4I_YF] | 0.666 | 0.764 | 0.672 | 0.497 | 0.653 | 0.712 | 0.824 | 1.59 | 1.17 | 1.24 | 0.908 | 0.692 | 0.554 | 0.629 | 1.03 | 0.496
PQQLWYTHEKK [UBTF_Y207] | 0.812 | 1.2 | 0.833 | 0.473 | 0.361 | 0.327 | 0.481 | 0.339 | 0.792 | 0.652 | 0.499 | 0.58 | 0.409 | 0.496 | 0.802 | 0.516
KIIATYRLCSE [DNAH3_Y1586_V1583I] | 0.611 | 0.74 | 0.574 | 0.421 | 0.354 | 0.51 | 0.678 | 0.477 | 0.951 | 0.887 | 0.693 | 0.596 | 0.407 | 0.462 | 0.808 | 0.431
TNEFEYDELIV [TGM1_Y136_D132N_YF] | 0.679 | 0.804 | 0.47 | 0.669 | 0.483 | 0.424 | 0.887 | 0.709 | 1.61 | 1.61 | 0.951 | 0.51 | 0.475 | 0.747 | 1.37 | 0.658
LNTFHHAGVSA [POLR2A_Y1109_Y1109H] | 0.65 | 0.956 | 0.547 | 1.17 | 0.883 | 0.76 | 0.731 | 0.766 | 2.04 | 0.884 | 1.36 | 0.632 | 0.356 | 0.575 | 1.19 | 0.462
LLNAIYLSAKR [SERPING1_Y294_W299R] | 1.59 | 1.64 | 1.11 | 1.09 | 0.947 | 0.846 | 0.963 | 0.85 | 1.43 | 1.58 | 1.61 | 0.659 | 0.86 | 1.36 | 1.65 | 0.617
LAIEWYVVVCK [RHO_Y136_R135W] | 0.583 | 1.05 | 0.5 | 0.852 | 0.676 | 1.33 | 2.21 | 0.847 | 3.21 | 2.49 | 2.27 | 1.8 | 0.972 | 1.36 | 1.88 | 1.45
LIDGFYRLTAD [JAK2_Y373_YF] | 0.759 | 0.918 | 0.503 | 0.86 | 0.741 | 0.883 | 0.991 | 0.523 | 1.51 | 1.29 | 0.816 | 0.747 | 0.698 | 0.807 | 1.29 | 0.754
